1 molecule from patent US20230295316A1 can be followed below.

The target of this experiment is Nonhuman Primate CD123. Description: SPR (Biacore T-100), univalent affinity; antibody captured on the CM4 chip, nonhuman primate CD123 ECD as analyte.
Sequence of Nonhuman Primate CD123 (soluble extracellular domain with His and Avi tags, as listed by the source limits assumed, form in doubt): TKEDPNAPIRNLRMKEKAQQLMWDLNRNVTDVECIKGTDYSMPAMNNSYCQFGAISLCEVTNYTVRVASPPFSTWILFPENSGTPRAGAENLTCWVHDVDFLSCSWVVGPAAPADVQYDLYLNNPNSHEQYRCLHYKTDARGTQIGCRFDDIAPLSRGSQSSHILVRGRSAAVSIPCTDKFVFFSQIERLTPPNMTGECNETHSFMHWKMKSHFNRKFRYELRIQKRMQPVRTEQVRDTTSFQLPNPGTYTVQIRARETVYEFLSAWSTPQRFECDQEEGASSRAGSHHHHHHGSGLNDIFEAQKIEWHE

B1: 123-10C4 (murine anti-CD123 antibody, IgG2b isotype, Kappa Light Chain) (antibody, V domains shown)
VH: QVQLKESGPGLVAPSQNLSITCTVSGFSLTTYDINWIRQPPGKGLEWLGVIWTGGGTNYNSAFMSRLSISKDNSKSQVFLKMNSLQTDDTAMYYCVRGDTYHYALDFWGQGTSVTVSS
VL: DIVMSQSPSSLAVSAGEKVTMSCKSSQSLLSSGTRKNYLAWYQQKPGQSPKLLIYWASTRESGVPDRFTGSGSGTDFTLTISSVQAEDLAVYYCKQSYILFTFGSGTKLEIK
For the molecule B1, the Kd was found to be 16.1 nM, the koff worked out at 0.0023 s⁻¹ and the kon came to 143000 M⁻¹ s⁻¹.

As a reminder, the Kd is the constant that tells how readily two partners part at equilibrium. By koff is commonly meant a measure of how fast the partners let go of each other. A lower koff goes with slow dissociation. As usually defined, the kon is a measure of how fast the partners come together.
